Experimental data reported in patent publication US20110294217, “DNA NICKING ENZYME FROM A HOMING ENDONUCLEASE THAT STIMULATES SITE-SPECIFIC GENE CONVERSION” (FRED HUTCHINSON CANCER RESEARCH CENTER, published 2011).

Tests used:
[1] = molecular target: T1, I-AniI Y2 K227M nickase (in cell) (Aspergillus nidulans, UniProt P03880 P03880:235-488, F13Y,F80K,S111Y,L232K,K227M); assay: cell_activity; cis recombination, 293T; reporter alone 5.10; details: tags: N-terminal HA and NLS
T1 sequence: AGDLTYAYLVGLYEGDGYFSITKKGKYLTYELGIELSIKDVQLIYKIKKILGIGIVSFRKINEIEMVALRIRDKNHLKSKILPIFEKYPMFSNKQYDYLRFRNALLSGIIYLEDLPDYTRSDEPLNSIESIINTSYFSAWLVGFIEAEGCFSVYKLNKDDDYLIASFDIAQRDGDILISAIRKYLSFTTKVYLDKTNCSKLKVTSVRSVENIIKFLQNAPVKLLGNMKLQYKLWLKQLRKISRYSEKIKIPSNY
Procedure: (§1) Cells were analyzed on an FACScan® flow cytometer (Becton Dickinson); 75,000 events were gated for linear side and forward scatter to identify cells; and GFP fluorescence was analyzed.
(§2) Reporter assays were developed to measure either intramolecular recombination in cis, or recombination of a chromosomal target mediated by a donor in trans. The assay for recombination in cis used a reporter, DR-GFPAni, based on the direct repeat recombination reporter plasmid (DR)-GFP (Pierce et al., Genes Dev. 13:2633-2638, 1999), which was designed to score only gene conversion, and not repair mediated by NHEJ or single-strand annealing. […] Transfection efficiency was consistently greater than 90%. […] The fraction of GFP⁺ cells ranged from a background of about 3 to about 5% for cells transfected with the reporter alone, up to about 50% in cells transfected simultaneously with the reporter plasmid and an I-AniI Y2 cleavase expression plasmid (FIG. 8C and FIG. 10). […] Expression of the I-AniI nickase stimulated recombination 2.5-fold (FIG. 8C), or approximately one-fourth as efficiently as the I-AniI cleavase.
(§3) ¹The two different series were performed as described in this example.

I-AniI Y2 (in cell) = molecular target: T2, I-AniI Y2 (in cell) (Aspergillus nidulans, UniProt P03880 P03880:235-488, F13Y,F80K,S111Y,L232K); assay: as above; details: tags: N-terminal HA and NLS
T2 sequence: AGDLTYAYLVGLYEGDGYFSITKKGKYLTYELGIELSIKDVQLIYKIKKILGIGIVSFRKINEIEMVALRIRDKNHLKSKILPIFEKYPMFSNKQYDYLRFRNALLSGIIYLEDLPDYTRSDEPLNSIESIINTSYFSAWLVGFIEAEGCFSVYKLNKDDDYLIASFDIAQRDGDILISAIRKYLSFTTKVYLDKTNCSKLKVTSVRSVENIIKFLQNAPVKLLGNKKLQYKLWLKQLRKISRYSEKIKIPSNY
Procedure: as §1, §2, §3

I-AniI HyperK (in cell) = molecular target: T3, I-AniI HyperK (in cell) (Aspergillus nidulans, UniProt P03880 P03880:235-488, F80K,L232K); assay: as above; details: tags: N-terminal HA and NLS
T3 sequence: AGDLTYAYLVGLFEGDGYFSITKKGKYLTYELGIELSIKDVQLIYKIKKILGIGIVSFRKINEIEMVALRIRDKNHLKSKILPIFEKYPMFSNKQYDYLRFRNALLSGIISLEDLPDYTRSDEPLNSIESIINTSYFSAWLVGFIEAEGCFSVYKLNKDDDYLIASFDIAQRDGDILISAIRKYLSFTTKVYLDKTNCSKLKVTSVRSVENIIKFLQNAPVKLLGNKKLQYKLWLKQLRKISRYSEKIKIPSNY
Procedure: as §1, §2, §3

[2] = molecular target: T4, I-AniI K227M/Q171K (catalytically inactive) (Aspergillus nidulans, UniProt P03880 P03880:235-488, F80K,L233K,Q171K,K227M); assay: ITC; catalytically inactive
T4 sequence: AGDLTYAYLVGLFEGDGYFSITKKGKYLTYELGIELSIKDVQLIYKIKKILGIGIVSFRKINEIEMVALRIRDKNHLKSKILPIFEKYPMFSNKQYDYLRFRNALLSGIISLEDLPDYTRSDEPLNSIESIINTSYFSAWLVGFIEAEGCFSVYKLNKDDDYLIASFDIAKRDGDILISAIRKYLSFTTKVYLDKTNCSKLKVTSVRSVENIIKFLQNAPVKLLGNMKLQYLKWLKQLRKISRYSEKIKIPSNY
Procedure: (§4) Isothermal titration calorimetry (ITC) was used to determine the dissociation constants of native and nicking I-AniI binding to the optimal LIB4 DNA target site (FIG. 4E). Calorimetric experiments were conducted as described previously (Eastberg et al., Biochemistry 46:7215-25, 2007). […] This difference is primarily due to a +5.8 kcal/mol increase in enthalpy change upon nickase binding, implying that the nicking variant has lost contacts to the DNA target—presumably because a hydrogen bond formed by the K227 side chain to the DNA phosphate backbone (Scalley-Kim et al., J. Mol. Biol. 372:1305-1319, 2007) is eliminated.

I-AniI K227M nickase = molecular target: T5, I-AniI K227M nickase (Aspergillus nidulans, UniProt P03880 P03880:235-488, F80K,L233K,K227M); assay: ITC; +1.4 kcal/mol in binding free energy vs wild type
T5 sequence: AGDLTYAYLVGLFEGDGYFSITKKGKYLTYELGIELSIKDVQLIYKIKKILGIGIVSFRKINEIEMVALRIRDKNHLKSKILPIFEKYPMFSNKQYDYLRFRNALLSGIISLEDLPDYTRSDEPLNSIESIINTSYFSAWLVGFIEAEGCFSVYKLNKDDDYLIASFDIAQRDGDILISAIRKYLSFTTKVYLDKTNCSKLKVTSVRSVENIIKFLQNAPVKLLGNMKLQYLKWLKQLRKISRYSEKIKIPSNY
Procedure: as §4

B1: I-AniI native target site (19 bp) (dsDNA)
DNA 1: TTACAGAGAAACCTCCTCA
DNA 2: TGAGGAGGTTTCTCTGTAA
- activity [1]: 12.4 % GFP+
- activity (I-AniI Y2 (in cell)): 47.5 % GFP+
- activity (I-AniI HyperK (in cell)): 11 % GFP+

B2: I-AniI Lib4 target site (dsDNA)
DNA 1: TGAGGAGGTTACTCTGTTA
DNA 2: TAACAGAGTAACCTCCTCA
- Kd [2]: 62 nM
- Kd (I-AniI K227M nickase): 71 nM
